This passage reports Km results from PMC3355655.

A word on the Km: it is the concentration of substrate that gives half-maximal velocity.

Substrate in this data set: O=P(O)(O)O[C@H]1[C@H](O)[C@@H](OP(=O)(O)O)[C@H](OP(=O)(O)O)[C@@H](OP(=O)(O)O)[C@H]1O
As to the kind of experiment: purified protein. The conditions noted are these: Mg2+.

B1: SHIP2 (SH2 (Src homology 2)-domain-containing inositol-phosphatase-2) (Homo sapiens) (protein)
chain: DEPDMISVFIGTWNMGSVPPPKNVTSWFTSKGLGKTLDEVTVTIPHDIYVFGTQENSVGDREWLDLLRGGLKELTDLDYRPIAMQSLWNIKVAVLVKPEHENRISHVSTSSVKTGIANTLGNKGAVGVSFMFNGTSFGFVNCHLTSGNEKTARRNQNYLDILRLLSLGDRQLNAFDISLRFTHLFWFGDLNYRLDMDIQEILNYISRKEFEPLLRVDQLNLEREKHKVFLRFSEEEISFPPTYRYERGSRDTYAWHKQKPTGVRTNVPSWCDRILWKSYPETHIICNSYGCTDDIVTSDHSPVFGTFEVGVTSQFISKKGLSKTSDQAYIEFESIEAIVKTASRTKFFIEFYSTCLEEYKKSFENDAQSSDNINFLKVQWSSRQLPTLKPILADIEYLQDQHLLLTVKSMDGYE
For B1, the Km worked out at 215 ± 28 µM.
